Assay results taken from the supplement of paper PMC9112550, “Optimization of the antimicrobial peptide Bac7 by deep mutational scanning” (BMC Biology, 2022).

test system: Escherichia coli TOP10; assay: shrunken log2 fold change of peptide-encoding DNA abundance (4.5 h post-induction vs induction); higher = less antimicrobial activity (less host growth inhibition); details: time post-induction: 4.5 h; library: site-saturation at positions 5, 18, 19, 20
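Further: peptides expressed intracellularly from a pBAD plasmid library in pooled LB shake-flask culture, induced with 0.3% L-arabinose, DNA abundance read by NGS, three biological replicates, DESeq2 with apeglm shrinkage.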

Row | Sequence | shrunken log2 fold change
1 | RRIRHRPPRLPRPRPRPIYHPRP | -0.0782
2 | RRIRHRPPRLPRPRPRPKALPRP | 0.0359
3 | RRIRHRPPRLPRPRPRPKDGPRP | 0.326
4 | RRIRHRPPRLPRPRPRPKGFPRP | 0.0595
5 | RRIRHRPPRLPRPRPRPKGMPRP | -0.448
6 | RRIRHRPPRLPRPRPRPKHCPRP | -0.447
7 | RRIRHRPPRLPRPRPRPKKYPRP | -0.806
8 | RRIRHRPPRLPRPRPRPKLYPRP | 0.0366
9 | RRIRHRPPRLPRPRPRPKMCPRP | -0.00195
10 | RRIRHRPPRLPRPRPRPKMIPRP | -0.254
11 | RRIRHRPPRLPRPRPRPKMSPRP | 0.166
12 | RRIRHRPPRLPRPRPRPKNCPRP | 0.00397
13 | RRIRHRPPRLPRPRPRPKNYPRP | -0.766
14 | RRIRHRPPRLPRPRPRPKPLPRP | 0.127
15 | RRIRHRPPRLPRPRPRPKQRPRP | 0.41
16 | RRIRHRPPRLPRPRPRPKQTPRP | 0.179
17 | RRIRHRPPRLPRPRPRPKSDPRP | -0.255
18 | RRIRHRPPRLPRPRPRPKTYPRP | -1.51
19 | RRIRHRPPRLPRPRPRPKVMPRP | 0.0163
20 | RRIRHRPPRLPRPRPRPKWGPRP | 0.177
21 | RRIRHRPPRLPRPRPRPKYTPRP | 0.973
22 | RRIRHRPPRLPRPRPRPLADPRP | 0.26
23 | RRIRHRPPRLPRPRPRPLDEPRP | -0.0217
24 | RRIRHRPPRLPRPRPRPLDIPRP | -0.105
25 | RRIRHRPPRLPRPRPRPLDPPRP | -0.331

Row | Sequence | shrunken log2 fold change
26 | RRIRHRPPRLPRPRPRPLDTPRP | 0.0608
27 | RRIRHRPPRLPRPRPRPLFNPRP | -0.58
28 | RRIRHRPPRLPRPRPRPLFVPRP | -0.471
29 | RRIRHRPPRLPRPRPRPLFYPRP | -0.702
30 | RRIRHRPPRLPRPRPRPLHAPRP | 0.297
31 | RRIRHRPPRLPRPRPRPLHDPRP | -0.277
32 | RRIRHRPPRLPRPRPRPLIDPRP | -0.408
33 | RRIRHRPPRLPRPRPRPLINPRP | -0.201
34 | RRIRHRPPRLPRPRPRPLKFPRP | -0.298
35 | RRIRHRPPRLPRPRPRPLKGPRP | 0.0721
36 | RRIRHRPPRLPRPRPRPLLFPRP | -0.364
37 | RRIRHRPPRLPRPRPRPLMCPRP | 0.0994
38 | RRIRHRPPRLPRPRPRPLNTPRP | -0.351
39 | RRIRHRPPRLPRPRPRPLPAPRP | 0.192
40 | RRIRHRPPRLPRPRPRPLPFPRP | -0.73
41 | RRIRHRPPRLPRPRPRPLQCPRP | -0.0439
42 | RRIRHRPPRLPRPRPRPLQPPRP | 0.157
43 | RRIRHRPPRLPRPRPRPLSKPRP | -0.746
44 | RRIRHRPPRLPRPRPRPLTNPRP | 0.185
45 | RRIRHRPPRLPRPRPRPLVMPRP | -0.0133
46 | RRIRHRPPRLPRPRPRPLVRPRP | -0.103
47 | RRIRHRPPRLPRPRPRPLWLPRP | 0.0573
48 | RRIRHRPPRLPRPRPRPLYKPRP | -0.272
49 | RRIRHRPPRLPRPRPRPMAPPRP | 0.0599
50 | RRIRHRPPRLPRPRPRPMCAPRP | -0.446

Row | Sequence | shrunken log2 fold change
51 | RRIRHRPPRLPRPRPRPMCWPRP | -0.178
52 | RRIRHRPPRLPRPRPRPMDPPRP | -0.385
53 | RRIRHRPPRLPRPRPRPMFHPRP | -0.509
54 | RRIRHRPPRLPRPRPRPMHNPRP | 0.708
55 | RRIRHRPPRLPRPRPRPMIQPRP | -0.0673
56 | RRIRHRPPRLPRPRPRPMNDPRP | -0.108
57 | RRIRHRPPRLPRPRPRPMNHPRP | -0.738
58 | RRIRHRPPRLPRPRPRPMNWPRP | -0.209
59 | RRIRHRPPRLPRPRPRPMPIPRP | 0.113
60 | RRIRHRPPRLPRPRPRPMQFPRP | 0.00869
61 | RRIRHRPPRLPRPRPRPMQPPRP | 0.172
62 | RRIRHRPPRLPRPRPRPMQRPRP | 0.138
63 | RRIRHRPPRLPRPRPRPMQWPRP | 0.00884
64 | RRIRHRPPRLPRPRPRPMRDPRP | 0.684
65 | RRIRHRPPRLPRPRPRPMSGPRP | -0.0285
66 | RRIRHRPPRLPRPRPRPMSSPRP | -0.225
67 | RRIRHRPPRLPRPRPRPMSYPRP | -0.0194
68 | RRIRHRPPRLPRPRPRPMTMPRP | -0.257
69 | RRIRHRPPRLPRPRPRPMVCPRP | -0.0703
70 | RRIRHRPPRLPRPRPRPMYIPRP | -0.0294
71 | RRIRHRPPRLPRPRPRPNAEPRP | -0.0088
72 | RRIRHRPPRLPRPRPRPNCQPRP | 0.358
73 | RRIRHRPPRLPRPRPRPNFDPRP | -0.0783
74 | RRIRHRPPRLPRPRPRPNGAPRP | -0.18
75 | RRIRHRPPRLPRPRPRPNGRPRP | -9.3e-05
